The values below come from the nanobody polyreactivity screen of Harvey et al. (2022).

This data set is described as follows: yeast display, Sf9 membrane polyspecificity reagent, FACS + sequencing; frameworks hold sequencing errors. A digest of the protocol: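 Nanobodies from a synthetic yeast display library (Saccharomyces cerevisiae BJ5465), induced 36–48 hours with galactose, were stained 1 hour at 4 °C with 10% biotinylated, detergent-solubilized Sf9 membrane reagent, enriched on streptavidin microbeads, then FACS-sorted. Anti-HA (expression) and streptavidin (reagent binding) fluorescence set low and high (top ~1%) gates. Polyreactivity labels come from the gate of origin. Genes were colony-PCR amplified, MiSeq 2 × 250 sequenced and filtered by CDR length.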
For “QVQLVESGGGLVQAGGSLRLSCAASGSTFEYYAMGWYRQAPGKERELVAAISSGPSTTYADSVKGRFTISRDNAKNTVYLQMNSLKPEDTAVYYCAARTYPSYYVTFEYWGQGTQVTVSS”, the “polyreactivity (PSR sort gate)” value is “low polyreactivity”. On to “QVQLVESGGGLVQAGGSLRLSCAASGLIFATYAMGWYRQAPGKERELVAAISIRGGITYYADSVKGRFTISRDNAKNTVYLQMNSLKPEDTAVYYCAARYSRAGISHRMDYWGQGTQVTVSS”, for which the “polyreactivity (PSR sort gate)” value was “high polyreactivity”. Turning to “QVQLVESGGGLVQAGGSLRLSCAASGFIFYRYVMGWFRQAPGKERELVAAISGRGGSTYYADSVKGRFTISRDNAKNTVYLQMNSLTPEDTAVYYCNRLVYRAAGGPMDYWGQGTQVTVSS”, the “polyreactivity (PSR sort gate)” value is reported as “high polyreactivity”. For “QVQLVESGGGLVQAGLTLRLSCAASGRIFYPYAMVWYRQAPGKERELVAYNTRSGGSTRYADSVKGRFTISRDNAKNTLYLQMNSLITEDTAVDYCAARTWGRRSSSWGGYYWGQGTQVTVSS”, the “polyreactivity (PSR sort gate)” value is listed as “high polyreactivity”. Then “QVQLVESGGGLVQAGGSLRLSCAASGSTFRANAMGWYRQAPGTERELVAVISSGGRTYYADSVKGRFTMSRDNAKTTVYLQMNSLKPEDTAVYYCAKDDYSVWYYYDYDYWGQGTQVTVSS”, with “high polyreactivity”; and “QVQLVESGGGLVQAGGSLRLSCAASGRTFNGYVMGWYSQAPGKEREFVAVINWSGGNTYYADSVKGRFTISRDNAKNTVYLQMNSLKPEDTAVYYCAARRVRSYAYDYWGQGTQVTVSS”, with “high polyreactivity”.

With “QVQIVESCGGLVQAGGSLRLSCAASGITFDVNTMGWYRQAPGKEREMVAAITRDVTTNYADSVKGPFTISRDNAKNTVYLQMNSLKPEDTAVYYCAADGYGQYSQVTDHPYKYNYWRQGTQVTVSS”, the “polyreactivity (PSR sort gate)” value is reported as “low polyreactivity”. “QVQLVESGGGLVQAGGSLRLSCAASGRIFVTNAMGWYRQAPGNERELVAGLNRSGDITYYADSVKGRFTISRDNAKNTVYLQMNSLKPEDTAVYYCAVDFYVYRWSPYGDVYRYDYWGQGTQVTVSS”: the “polyreactivity (PSR sort gate)” value is “high polyreactivity”.

On to “QVQLVESGGGLVQAGGSLRLSCAASGFTFVYYTMGWSSQAPGKERELVAAISSSGGRTSYADSVKGRFTISRDNEKNTVYLQMNSLKPEDTAVYYCAARAYPTWRTYYYWGQGTQVTVSS”, for which the “polyreactivity (PSR sort gate)” value was “high polyreactivity”. Then “QVQLVESGVGLVQAGGSLRVSCAASGLTFAYYDMGWYRQAPGKERELVAAITWNGGSTYYADSVKGRFTISRDNAKNTVYLQMNSLKPEDTAVYYCAASWGYGYSGRFDYWGQGTQVSVSS”, with “high polyreactivity”; and “QVQLVESGGGLVQAGGSLRLSCAASGFIFFRYAMGWYRQAPGKERELVAAISSSGGSTYYADSVKGRFTISRDNAKNTVYLQMNSLKPEDTAVYYCAAPRYRIFVGLGMDYWGQGTQVTVSS”, with “high polyreactivity”. Turning to “QVQLVESGGGLVQAGGSLRLSCAASGGTIVWNAMGWNRQAPGKEREFVAAITSSGGSTYYADSVKGRFTISRDNAKNSVYLQMNSLKPEDTAVYYCNVDTHSSYEFNSWGQGTQVTVSS”, the “polyreactivity (PSR sort gate)” value was “low polyreactivity”. In the case of “QVQLVDSGGGLVQAGGSLRLSCAAYGSTFGPYAMGWYRQAPGKERELVAAIRVSGGSTYYADSVKGRFTISRDNAKNTVYLQMNSLKPEDTAVYYCIRDVMTFNYDYWGQGTQVTVSS”, the “polyreactivity (PSR sort gate)” value is recorded as “low polyreactivity”. Take “QVQLVESGGGLVQAGGSLRLSCAASGRIFSPYAMGWYRQAPGKERELVAAITRNGGRTYYADSVKGRFTISRDNAKNTVYLQMNSLKPEDTAVYYCAAAKQSGNDYWGQGTQVTVSS”: the “polyreactivity (PSR sort gate)” value is listed as “low polyreactivity”. Under “QVQLVESGGGLVQAGGSLRLSCAASGSTSYWYAMGWYRQAPGKERELVAAISSDDSTHYADSVKGRFTISRDNAKNTVYLQMNSLKPEDTAVYYFNREHYLIRYDYWGQGTQVTVSS” stands “low polyreactivity”. “QVQLVESGGGLVQAGGSLRLSCAASGRTFTWNAMGWYRQAPGKERELVADITNNGGSTYYADSVKGRFTISRDNAKNTVYLQMNSLKPEDTAVYYCAKRRNYWFSFDYWGQGTQVTVSS”: the “polyreactivity (PSR sort gate)” value is listed as “low polyreactivity”.

As to “QVQLVESGGGLVQAGGSLRLSCAASGFIFSHYAMGWYRQAPGKERELVAAISWSGDSTYYADSVKGRFTLSRDNAKNTVDLQMNSLKPEDTAVYYCNAVYFWVRYLKFLEFGYWGQGTQVTVSS”, the “polyreactivity (PSR sort gate)” value is listed as “high polyreactivity”. “QVQLVESGGGLVQAGGSLRLSCAASGIIFYTYAMGWYRQAPGKERELVAAISRSGVRTYYADSVKGRFTISRDNAKNTVYLQMNSLKPEDTAVYYCAVDKGITQGLYDYWGQGTQVTVSS”: the “polyreactivity (PSR sort gate)” value is “high polyreactivity”.

For the sequence “QVHLVESGGGLVQAGGTLRLSCAASGFTFRIYAMGWYIQAPGKERELVATISWSGTSTYYADSVKGRFTISRDNAKNTVYLQMNSLKPEDTAVYYCAKDGVSVYWLNKYYYWGQGTQVTVSS”, the “polyreactivity (PSR sort gate)” value is “low polyreactivity”.

Consider “QVQLVESGGGLVQAGGSLRLSCAASGSTFRIYAMGWYRQAPGREREFVAAITWTGGSTYYADSVKGRFTISRDNAKNTVYLQMNSLKPEDTADYYCAARQLSDYYWGQGTQVTVSS”, for which the “polyreactivity (PSR sort gate)” value is on record as “high polyreactivity”. Consider “HVQLVESGGGLVQAGGSLRLSCAASGSIFLHNTMGWYRQAPGKERELVAVISKRGGSTYYADSVKGRFTISRDNAKNTVYLQMNCLKPEDTAVYYCNKTRSAGHPGVDGSPYYYWGQGTQVTVSS”, for which the “polyreactivity (PSR sort gate)” value is “high polyreactivity”.

As to “QVQLVESGGGLVQAGGSLRLSCAASGSIFFANAMGWYRPAPGKERELVATITSGGSTTYADSLKGRFTISRDNAKNTVYLQMNSLKPEDTAVYYCNADYDYGWVFYSNYDYWGQGTQVTVSS”, the “polyreactivity (PSR sort gate)” value is “low polyreactivity”. In the case of “QVQLVESGGGLVQAGGSLRLSCSASGSIFYTYAMGWYRQAPGKERELVAAISRSGGITYYADSVKGRFTISRDNAKNTVYLEMNSLKPEDTAVYFCNVASASPGRYDYWGQGTQVTLSS”, the “polyreactivity (PSR sort gate)” value was “high polyreactivity”.

Turning to “QVQLVESGGGLVQAGGSLRLSCAASGSSFDIYVMGWYRQAPGKERELLAAISRVGNTSYADSVKGRFTISRDNGKNTVYLQMNKHETGIYRGHYCGAGLVGAGYITYNDYDYWGQGTQVSVSS”, the “polyreactivity (PSR sort gate)” value is given as “low polyreactivity”.

For the sequence “QVQLVESGGGLVQAGGSLRLSCAASGRIFSDNAMGWYRQAPGKERELVAAITDRGGSTYYADSVKGRFTISRDNAQNTVYLQMNSLKPEDTAVYYCAARNTPAQLDYWGQGTQVTVSS”, the “polyreactivity (PSR sort gate)” value is on record as “low polyreactivity”. For “QVQLVESGGGLVHAGGSLRLSCAASGFIFDTYAMGWYRQAPGKERELVAAISRSGVRTYYADSVKGRFTISRDNAKNTVYLQMNILKPEDTAVYYCNAALNRYHFGRAFPGVYWGHGTQVTVSS”, the “polyreactivity (PSR sort gate)” value is given as “high polyreactivity”. As for “QVQLVESGGGLVQAGGSLRLSCAASGRIFPEYAMGWYRQAPGKERELVAAITSGGNYADSVKGRFTISRDNAKNTVYLQMNSLKPEDTAVYYCAAVYLWYGSWPLHFAAYDYWGQGTQVTVSS”, the “polyreactivity (PSR sort gate)” value is “low polyreactivity”. Consider “QVQLVESGGGLVQAGGSLRLTCAASGTFFMGWYRQAPGKERELVAGISISDGSTYYADSVKGRFTISRDNAKNTVYLQMNSLKPEDTAVYYCAADSHYLYDYWGQGTQVTVSS”, for which the “polyreactivity (PSR sort gate)” value is reported as “low polyreactivity”.

For the sequence “QVQLVESGGGLVQAGGSLRLSCAASGSIFSKYTMGWYRQAPGKERELVAAISRAGSTYYADSVKGRFTISRDNAKNTVYLQMNSLKPEDTAVYYCAAEWSDSVYYSYEYWGQGTQVTVSS”, the “polyreactivity (PSR sort gate)” value is recorded as “high polyreactivity”. For “QVQLVESGGGLFEEGGSLRISCAASGRIFAPYAMGWYRHAPGKERELVAAISWSDVSTDYAVSVKGRFTISRDNAKNTVYLQMYSLKPEVTAVYYCAAAYAGYRGWYYYWGQVTQVTVSS”, the “polyreactivity (PSR sort gate)” value is on record as “high polyreactivity”. On to “QVQLVESGGGLVQAGGSLRLSCAASGITFYRYTMGWYRQAPGKERELVATITSGASTSYADSVKGRFTISRDNAKNTVYLQMNSLKPEDTAVYYCAARRTRVTGRYSVYAFDYWGQGTQVTVSS”, for which the “polyreactivity (PSR sort gate)” value is listed as “low polyreactivity”. As for “QVQLVESGGGLVQAGGSLRLSCAASGSIFFTYTMGWYRQAPGKERELVAAISASGGSTYYADSVKGRFTISRDNAKNTVYLQMNSLKPEDTAVYYCNARRRTSFIMYYWGQGTQVTVSS”, the “polyreactivity (PSR sort gate)” value was “high polyreactivity”. For “QGQLVESGGGLFQAGASLRLSCAASGITFYDNAMGLYRQAPGKERELVAGISYDGDSTYADSVKGRFTISRDNAKNTVYLQMNSLKPEDTAVYYCAALCPYDWLWAGDYWGQGTQVTVSS”, the “polyreactivity (PSR sort gate)” value is recorded as “low polyreactivity”. On to “QVQLVESGGGLVQAGGSLRLSCAASGRTFVGYVMGWDRQAPGKERELVAAISTSGGRTYYADSVKGRFTISRDNAKNTGYLQMNSLKPEDTAVYYCNAVSKQPIGYEYWGQGSQVTVSS”, for which the “polyreactivity (PSR sort gate)” value was “high polyreactivity”.

With “QVQLVESGGGLVQAGGSLRLSCAASGSTFTGNAMAWYRQAPGKERELVAAISRSGGSTFYADYVKGRFTISRDNAKNTVYLQMNSLKPEDTAVYYCATRYVVDMDYWGQGTQVTVSS”, the “polyreactivity (PSR sort gate)” value is “high polyreactivity”.

In the case of “QVHLVESGGGLVQAGGSLRLSGAASGRIFFSNAMGWYRQAPGKEWELVAAISTSGGSTYYADSVKGRFTISRENAKNTVYLQMNSLKPEDTAVYYCNAVYYTSYSGYHFVYEYDYWGQGTQVTVSS”, the “polyreactivity (PSR sort gate)” value was “low polyreactivity”. Turning to “QVQLVESGGGLVQAGGSLRLSCAASGFTFANPMGWYRQAPGKERELVAAISSGGGSTYYADSVKGRFTISRDNAKNTVYLQMNSLKPEDTAVYYCAAGYGTLDWWEDYWGQGTQVTVSS”, the “polyreactivity (PSR sort gate)” value is “high polyreactivity”. “QVQLVESGGGLVQAGGSLRLSCAASGIIFYLYAMGWYRQAPGKERELVAAISRRGGSTYYADSVKGRFTISRDNAKNTVYLQMNSLKPEDTAVYYCAATIGTFGYGYWGQGTQVTVSS”: the “polyreactivity (PSR sort gate)” value was “high polyreactivity”. Consider “QVQLVESGGGLLQAGGSLRLSCAASGFIFSLYAMGWYRQAPGKERELVASINRRGTSTFYADSVKGRFTISLDNAKKTVYLQMNSMKPEDTAVYYCNAYPVAAIRSTGSYDYWGQGTQVTVSS”, for which the “polyreactivity (PSR sort gate)” value is given as “low polyreactivity”. Under “QVQLVESGGRLVQAGGSLRLSCAASGFIFGTYAMGWYRQAPGKEREFVAAITRSGSSTYYADSVKGRFTISRDNAKNTVYLQMNSLKPEDTAVYYCAADLTRGRFRYYYWGQGTQVTVSS” stands “high polyreactivity”; under “QGQLGESGGGLVQAGGSLRLSCAATGFTSYVYAMGWYRQAPGKERELVAAISLRTASTYYADSVKGRFTISRDNAKNTVYLQMTSLKPEDTAVYDCALGRETYRYAYRLNYWGQGTQVTLSS”, “high polyreactivity”.
